For one substance, DPP-4 half-life results are on record in patent US20260199429A1.

The target in test [1] is Bowfin PYY (bowfin).
In test [2] the target is Human PYY(1-36) (human).
Test [3] concerns the target Sea Lamprey PYY(1-36) (sea lamprey).
For test [4], the target named is Sturgeon PYY(1-36) (sturgeon).
For test [5], the target named is Trout PYY (trout).

On to purified DPP-4 (enzyme), for which the DPP-4 half-life is more than 8 h in test [1]; less than 2 h in test [2]; more than 8 h in test [3]; more than 8 h in test [4]; more than 8 h in test [5].
